From the supplement of paper PMC7877785
± gives the uncertainty stated by the source.

Assay: self-splicing fitness, log relative to wild type (ln ratio); higher = more splicing; Tetrahymena group I intron in knt gene, E. coli kanamycin selection, DiMSum; sequences stand for … in CUCUCU…GGAGGGAAAAGUUAUCAGGCAUGCACCUGGUAGCUAGUCUUUAAACCAAUAGAUUGCAUCGGUUUAAAAGGCAAGACCGUCAAAUUGCGGGAAAGGGGUCAACAGCCGUUCAGUACCAAGUCUCAGGGGAAACUUUGAGAUGGCCUUGCAAAGGGUAUGGUAAUAAGCUGACGGACAUGGUCCUAACCACGCAGCCAAGUCCUAAGUCAACAGAUCUUCUGUUGAUAUGGAUGCAGUUCACAGACUAAAUGUCGGUCGGGGAAGAUGUAUUCUUCUCAUAAGAUAUAGUCGGACCUCUCCUUAAUGGGAGCUAGCGGAUGAAGUGAUGCAACACUGGAGCCGCUGGGAACUAAUUUGUAUGCGAAAGUAUAUUGAUUAGUUUUGGAGUACUCGUGGUCG
Method in brief: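 A randomised library covering all eight P1ex-region intron nucleotides was built with the intron in the knt kanamycin-resistance gene on pET-22b(+) and held in E. coli BL21(DE3). Cells were grown overnight at 37°C or 30°C on LB agar, with or without 25 μg/mL kanamycin, plus 100 μg/mL carbenicillin, 50 μM IPTG and 0.2% rhamnose, and pooled colonies were amplicon-sequenced on an Illumina HiSeq 2500. DiMSum fitness is the error-weighted combination of wild-type-normalised replicate fold changes, kanamycin versus none.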

Sequence | self-splicing fitness (ln) (30 °C) | self-splicing fitness (ln) (37 °C)
UCUCAGCAAUAUUACGGCAG | -3.36 ± 0.31 | -0.98 ± 0.19
UCUCAGCAAUAUUACGGCGC | -2.56 ± 0.22 | -1.78 ± 0.31
UCUCAGCAAUAUUACGGGUG | -0.627 ± 0.072 | -0.219 ± 0.083
UCUCAGCAAUAUUACGGUCA | 0.115 ± 0.061 | 0.0673 ± 0.075
UCUCAGCAAUAUUACGGUGG | -2.24 ± 0.14 | -2.31 ± 0.18
UCUCAGCAAUAUUACGUAAC | -2.74 ± 0.21 | -2.2 ± 0.28
UCUCAGCAAUAUUACGUAGU | -1.71 ± 0.1 | -0.822 ± 0.11
UCUCAGCAAUAUUACGUAUG | -2.86 ± 0.42 | -2.79 ± 0.38
UCUCAGCAAUAUUACGUUAG | -3.98 ± 0.4 | -2.34 ± 0.27
UCUGAGCAAUAUUACGAAAG | -2.21 ± 0.27 | -1.71 ± 0.27
UCUGAGCAAUAUUACGACCG | -2.92 ± 0.4 | -2.39 ± 0.46
UCUGAGCAAUAUUACGACGG | -1.18 ± 0.11 | -0.451 ± 0.12
UCUGAGCAAUAUUACGCAUC |  | -2.47 ± 0.49
UCUGAGCAAUAUUACGCCUA |  | -0.697 ± 0.44
UCUGAGCAAUAUUACGCGGG | -3.91 ± 0.26 | -2.29 ± 0.2
UCUGAGCAAUAUUACGGACU | -2.57 ± 0.39 | -1.21 ± 0.41
UCUGAGCAAUAUUACGGAGA | -2.35 ± 0.17 | -0.963 ± 0.14
UCUGAGCAAUAUUACGGAGC | -2.77 ± 0.21 | -2.92 ± 0.2
UCUGAGCAAUAUUACGGCAC | -4.07 ± 0.47 | -1.06 ± 0.28
UCUGAGCAAUAUUACGGCGG | -0.492 ± 0.094 | -0.249 ± 0.14
UCUGAGCAAUAUUACGGUAC | -3.24 ± 0.47 | 

Sequence | self-splicing fitness (ln) (30 °C) | self-splicing fitness (ln) (37 °C)
UCUGAGCAAUAUUACGUGAU | -3.42 ± 0.23 | -1.42 ± 0.44
UCUGAGCAAUAUUACGUGCU | -3.52 ± 0.4 | 
UCUGAGCAAUAUUACGUUAC | -3.38 ± 0.2 | -2.33 ± 0.22
UCUGAGCAAUAUUACGUUAU | -3.6 ± 0.31 | -3.68 ± 0.42
UCUGAGCAAUAUUACGUUCU | -3.98 ± 0.3 | -2.89 ± 0.31
UCUGAGCAAUAUUACGUUGG | -0.956 ± 0.13 | -0.905 ± 0.15
UCUUAGCAAUAUUACGAAAU | -3.48 ± 0.33 | -3.09 ± 0.35
UCUUAGCAAUAUUACGAAUC | -3.32 ± 0.5 | 
UCUUAGCAAUAUUACGAGAG | -2.35 ± 0.26 | -0.861 ± 0.16
UCUUAGCAAUAUUACGAUAU |  | -1.78 ± 0.38
UCUUAGCAAUAUUACGAUCG | -1.44 ± 0.19 | -0.631 ± 0.19
UCUUAGCAAUAUUACGAUCU | -2.59 ± 0.29 | -2.04 ± 0.29
UCUUAGCAAUAUUACGAUGA | -0.467 ± 0.082 | 0.223 ± 0.084
UCUUAGCAAUAUUACGCACC |  | -1.21 ± 0.37
UCUUAGCAAUAUUACGCAGU | -2.76 ± 0.22 | -1.05 ± 0.13
UCUUAGCAAUAUUACGCAUG | -1.98 ± 0.18 | -0.995 ± 0.19
UCUUAGCAAUAUUACGCCGG | -1.85 ± 0.26 | 0.459 ± 0.31
UCUUAGCAAUAUUACGCGGC | -2.44 ± 0.3 | -0.722 ± 0.36
UCUUAGCAAUAUUACGCUUC | -4.09 ± 0.35 | -2.41 ± 0.19
UCUUAGCAAUAUUACGGAAG |  | -1.81 ± 0.41
UCUUAGCAAUAUUACGGAGA |  | -2.76 ± 0.38
